Results as given in patent US20250382376A1 (FUDAN UNIVERSITY, published 2025).
Blank lines part the entries; values can stand above or below the binder they belong to.

Experiments:
[1] = biological target: T1, CD73 on the surface of human cells (human, UniProt P21589 27-549); assay: flow cytometry on NCI-H1373 cells
T1 construct: whole, on cells; The cell line of each value is named under assay or readout; also called CD73 on the surface of tumor cells; CD73 enzyme on the surface of MDA-MB-231 cells
T1 sequence (looked up): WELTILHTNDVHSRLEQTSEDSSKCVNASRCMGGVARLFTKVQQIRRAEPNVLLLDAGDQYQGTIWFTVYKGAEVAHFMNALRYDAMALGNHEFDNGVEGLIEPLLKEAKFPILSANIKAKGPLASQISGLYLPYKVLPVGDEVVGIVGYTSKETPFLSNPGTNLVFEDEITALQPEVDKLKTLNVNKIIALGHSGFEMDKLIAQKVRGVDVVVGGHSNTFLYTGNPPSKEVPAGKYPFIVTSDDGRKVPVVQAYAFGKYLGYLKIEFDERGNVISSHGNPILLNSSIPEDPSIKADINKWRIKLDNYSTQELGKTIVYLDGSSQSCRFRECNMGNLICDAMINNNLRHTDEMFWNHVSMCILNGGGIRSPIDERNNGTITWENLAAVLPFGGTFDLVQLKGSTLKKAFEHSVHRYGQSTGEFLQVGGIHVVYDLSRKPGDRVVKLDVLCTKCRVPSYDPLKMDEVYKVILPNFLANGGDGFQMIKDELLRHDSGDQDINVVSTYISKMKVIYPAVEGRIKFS
Experimental: (§1) 100 μL of the test antibodies diluted from 10 μg/mL to 0.016 μg/mL in a 5-fold gradient were used as the primary antibodies, and were mixed with 1×10⁵ tumor cells suspended in 100 μL RPMI-1640 serum-free medium to make a final concentration of 5 μg/mL diluted to 0.008 μg/mL, and then incubated at 4° C. for 1 h. The cells were washed twice with PBS to remove unbound primary antibodies, and then the target cells were incubated with 200 μLPE-labeled secondary antibody at 2 μg/mL at 4° C. for 30 min. The cells were washed twice with PBS to remove unbound secondary antibodies, and finally the cells were resuspended in 200 μL PBS. The binding affinity of the test antibodies to CD73 on the surface of the corresponding cells was measured by flow cytometry.

[2] = biological target: T1, CD73 on the surface of human cells; assay: Flow cytometry on NCI-H1975 cells, PE-labelled secondary antibody [panel B]
Experimental: as §1

[3] = biological target: T1, CD73 on the surface of human cells; assay: Flow cytometry on PC9 cells, PE-labelled secondary antibody [panel A]
Experimental: as §1

[4] = biological target: T1, CD73 on the surface of human cells; assay: flow cytometry on NCI-H1975 cells
Experimental: as §1

[5] = biological target: T1, CD73 on the surface of human cells; assay: Flow cytometry on HCC44 cells, PE-labelled secondary antibody
Experimental: as §1

[6] = biological target: T1, CD73 on the surface of human cells; assay: Flow cytometry on NCI-H1299 cells, PE-labelled secondary antibody [panel B]
Experimental: as §1

[7] = biological target: T1, CD73 on the surface of human cells; assay: Flow cytometry on MDA-MB-231 cells, PE-labelled secondary antibody [panel A]
Experimental: as §1

[8] = biological target: T1, CD73 on the surface of human cells; assay: flow cytometry on PC9 cells
Experimental: as §1

[9] = biological target: T2, extracellular domain of human CD73 protein, C-terminus polyhistidine-tagged (human, UniProt P21589 27-547); assay: SPR as the filing names it (ForteBio OCTET R2); antibody on Protein A sensor, CD73-ECD in solution, 25 C
T2 construct: also the immunogen; also called CD73-ECD; human CD73-ECD
T2 sequence: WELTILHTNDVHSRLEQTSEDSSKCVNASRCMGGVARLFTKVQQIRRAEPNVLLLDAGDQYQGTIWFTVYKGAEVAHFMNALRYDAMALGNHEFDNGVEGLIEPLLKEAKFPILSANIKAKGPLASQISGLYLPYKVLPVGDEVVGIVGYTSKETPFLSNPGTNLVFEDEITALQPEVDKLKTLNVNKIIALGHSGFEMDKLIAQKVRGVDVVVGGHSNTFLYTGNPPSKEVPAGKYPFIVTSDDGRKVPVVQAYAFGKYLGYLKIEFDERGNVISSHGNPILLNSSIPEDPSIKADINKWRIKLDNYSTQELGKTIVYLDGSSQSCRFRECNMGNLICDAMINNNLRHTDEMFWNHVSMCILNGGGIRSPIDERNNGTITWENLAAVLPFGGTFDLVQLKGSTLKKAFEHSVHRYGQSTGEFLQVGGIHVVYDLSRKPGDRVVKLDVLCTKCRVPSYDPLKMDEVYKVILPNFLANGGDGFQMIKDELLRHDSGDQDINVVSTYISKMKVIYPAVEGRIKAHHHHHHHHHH
Experimental: Surface plasmon resonance (SPR) assay: Protein A sensor was used to immobilize the antibodies, with an immobilization height of about 1.5 nM. […] Affinity detection: equilibrium for 60 s, binding for 180 s, dissociation for 180 s, at a detection temperature of 25° C. Kinetic characterization analysis was performed using the ForteBio OCTET R2 system.

[10] = biological target: T1, CD73 on the surface of human cells; assay: flow cytometry on HCC44 cells
Experimental: as §1

[11] = biological target: T1, CD73 on the surface of human cells; assay: Flow cytometry on SW1573 cells, PE-labelled secondary antibody [panel A]
Experimental: as §1

[12] = biological target: T1, CD73 on the surface of human cells; assay: flow cytometry on SW1573 cells
Experimental: as §1

EC50 [1]: 0.135 µg/mL
Max MFI [2]: 79700 MFI
Max MFI [3]: 58900 MFI
EC50 [4]: 0.057 µg/mL
Max MFI [5]: 130000 MFI
Max MFI [6]: 157000 MFI
Max MFI [7]: 64500 MFI
EC50 [8]: 0.041 µg/mL
Kd [9]: 0.826 nM
EC50 [10]: 0.096 µg/mL
Max MFI [11]: 69600 MFI
B1: chimeric nanobody 5-E11 (Fc fusion)
VHH: ALQLVESGGGLVQPGGSLRLSCEVSGFTLDYYNIGWFRQAPGKEREGVSCSSNSGGSTYYADSVKGRFTISRDNAKNTVYLQMNSLKPEDTGVYYCAAYRGWHPSLDARVYDYWGQGTEVTVSS
notes: Human-alpaca chimeric antibody (VHH on hIgG1 Fc); Only the VHH is tied to the tested molecule; also called original antibody 5-E11

EC50 [1]: 0.163 µg/mL
Max MFI [2]: 86100 MFI
Max MFI [3]: 65000 MFI
EC50 [12]: 0.067 µg/mL
EC50 [4]: 0.068 µg/mL
Max MFI [5]: 145000 MFI
Max MFI [6]: 168000 MFI
Max MFI [7]: 79300 MFI
EC50 [8]: 0.057 µg/mL
Kd [9]: 0.919 nM
EC50 [10]: 0.114 µg/mL
Max MFI [11]: 71300 MFI
B2: chimeric nanobody 4-D04 (Fc fusion)
VHH: QLQLVESGGGLVQPGGSLRLSCAASGFTLDYYNIGWFRQAPGKEREGVSCISSSEGSTYYADSVKGRFTISRDNAKNTVYLQMNSLKPEDTAVYYCAADRYYYCSLHVSQYDYWGQGTLVTVSS
notes: Human-alpaca chimeric antibody

EC50 [1]: 0.227 µg/mL
Max MFI [2]: 80900 MFI
Max MFI [3]: 58800 MFI
EC50 [12]: 0.116 µg/mL
EC50 [4]: 0.106 µg/mL
Max MFI [5]: 135000 MFI
Max MFI [6]: 155000 MFI
Max MFI [7]: 69600 MFI
EC50 [8]: 0.133 µg/mL
Kd [9]: 2 nM
EC50 [10]: 0.234 µg/mL
Max MFI [11]: 71000 MFI
B3: chimeric nanobody 3-D7 (Fc fusion)
VHH: QRQLVESGGGLVQPGGSLRLSCAASGFLLDYYVIGWFRQAPGKEREGVSCISGSDRSTYYADSVKGRFTISRDNAKNTVYLQMNSLKPEDTAVYFCAADPSPVTVQAMCLPRFPVPYWGQGTQVTVST
notes: Human-alpaca chimeric antibody (VHH on hIgG1 Fc); Only the VHH is tied to the tested molecule; 37-39 exist for 3-D7-FC1/FC2/FC3; also called original antibody 3-D7

EC50 [1]: 0.112 µg/mL
Max MFI [2]: 82700 MFI
Max MFI [3]: 61600 MFI
EC50 [12]: 0.061 µg/mL
EC50 [4]: 0.055 µg/mL
Max MFI [5]: 136000 MFI
Max MFI [6]: 170000 MFI
Max MFI [7]: 69500 MFI
EC50 [8]: 0.044 µg/mL
Kd [9]: 0.795 nM
EC50 [10]: 0.105 µg/mL
Max MFI [11]: 73800 MFI
B4: chimeric nanobody 4-B02 (Fc fusion)
VHH: EVQLVESGGGLVQPGGSLRLSCAASGFPLDYYSIGWFRQAPGKEREGVSCIGSSDGSTYYADSVKGRFTISRDNAENTVWLQMNSLKPEDTAVYYCAALKYYYCSGHEAIYDYWGQGTQVTVSG
notes: as for B2
